From paper PMC9332396

Target: His6-NbSWP12 recombinant protein (spore wall protein NbSWP12 of Nosema bombycis) (Nosema bombycis)
Assay: non-reducing SDS-PAGE with Western blot; purified His6-NbSWP12 in non-reducing loading buffer (no SDS, no β-mercaptoethanol, not heated), 12% gel, blot with NbSWP12 antiserum

His6-NbSWP12 recombinant protein (spore wall protein NbSWP12 of Nosema bombycis) (natural protein)
stoichiometry N: 2
